For one assay, the target named is T1, GST-DRPLA-35Q (Homo sapiens, UniProt P54259, DUP487-502).
T1 construct: made in house; host or cells: E. coli BL21
Nature of the assay: Affinity purification of sFv with GST-fusion antigens (glutathione-Sepharose, SDS-PAGE, immunoblot). As to conditions: 3 μg sFv with 4 μg antigen, 1 hr room temperature. The class given is binding. How it is done: (§1) About 3 ug of N-HD-C4 sFv was mixed with 4 ug of either GST-DRPLA-Q35 or GST-HD-Q25 or GST-HD-Q42 in PBS (200 μl final volume) and rocked for 1 h at RT. Twenty microliters of glutathione Sepharose 4B beads (50% slurry, pre-washed with PBS) was added and incubated for another 30 min at RT to capture the sFv/GST fusion protein complexes. The beads were harvested by centrifugation at 12,000×g for 10 sec and washed thrice with 1 ml PBS. The complexes were eluted with 10 μl of 50 mM Tris pH 8.0 containing 10 mM reduced glutathione for 10 min at RT. Tubes were then centrifuged at 12,000×g for 1 min and the supernatants containing the soluble complexes were transferred to new tubes, mixed with an equal volume of 2× SDS-sample buffer and heated at 95° C. before being loaded on SDS-PAGE.
(§2) About 3 μg of each clone were incubated in solution for 1 hour at room temperature with 4 ug of either GST-DRPLA-Q35, GST-HD-Q25 or GST-HD-Q42. Then, a 10 μl bed volume of glutathione-Sepharose 4B (Pharmacia) was added to each tube to precipitate the GST-fusion protein/sFv complexes. After 30 min incubation, tubes were centrifuged and the pellets washed 3 times with 1 ml PBS. The complexes were eluted from glutathione-Sepharose beads by addition of 10 mM reduced glutathione to the pellets.
(§3) After centrifugation, supernatants containing the eluted complexes were transferred to new tubes and mixed with an equal volume of 2× SDS-loading buffer. The samples were boiled and the proteins separated on a 12% SDS-PAGE. Protein bands were visualized by Coomassie blue staining, and/or transferred to nitrocellulose membranes in order to detect the sFv molecules by immunoblot.
(§4) The binding specificities of the selected sFv clones were tested by affinity binding to a full range of antigens, as follows: (a) using sample numbers that correspond to the experimental results in FIGS. 9 and 10, about 3 μg of α-Nt-HD-C4 sFv clone 1 (lanes 2-4) or α-Nt-HD-C4 sFv clone 2 (lanes 5-7) were mixed with 4 μg of the following antigens and incubated in solution for 1 hr at room temperature (lanes 2 and 5) GST-DRPLA-35Q, (lanes 3 and 6) GST-HD-25Q, (4 and 7) GST-HD-42Q; (b) a 10 μl bed volume of glutathione-Sepharose 4B (Pharmacia) was added to each tube to bind all GST-containing protein complexes; the beads were washed with 10 mM glutathione solution, which eluted the GST-antigen or the sFv-antigen complex, and these eluates were analyzed by SDS-PAGE. Protein bands were visualized by Coomassie blue staining (FIG. 9) and were also transferred to nitrocellulose membranes in order to detect the sFv molecules by immunoblot blot (FIG. 10).
A general note: A western blot detects proteins with antibodies after separation by electrophoresis.

The test system of the next assay is GST-HD-25Q, GST-HD-42Q. The description is as above. The class given is binding. As to conditions: 3 μg sFv with 4 μg antigen, 1 hr room temperature; Coomassie and immunoblot. How it is done:
as §1, §2, §3, §4

In assay [1] the test system is model huntingtin polypeptide (HD-25Q-GFP, pHD-104Q-GFP, HD-Q104-myc, GFP-HD-Q104). Nature of the assay: Intrabody retargeting of model huntingtin polypeptide in co-transfected COS-7 cells (immunofluorescence). As to conditions: co-transfected mammalian cells. The class given is cell-based. Here is the method:
COS 7 cells were grown on cover glass in 6-well plates (10^5 cells/well) and co-transfected at a ratio of 3:1 (sFv to target) with plasmids containing either N-HD-C4 sFv or a negative control sFv (containing an HA tag and SV40 nuclear localization sequence (NLS)) and plasmids containing GFP-targeted fusion proteins using 5 μl SuperFect transfection reagent (QIAGEN). At 24 hours post-transfection, cells were prepared for immunofluorescence as follows: cells were fixed with 4% paraformaldehyde and permeabilized with 0.2% triton-X100. To prevent non-specific binding of secondary antibodies, cells were blocked with 10% normal goat serum in 3% BSA.
The assay is designed such that both the target antigen, i.e., the model huntingtin polypeptide, and the intrabody can be visualized. In particular, the huntingtin polypeptide is visualized by detecting fluorescence emitted by the GFP domain of the huntingtin-GFP fusion polypeptide and the intrabodies tested are visualized using a rhodamine-conjugated antibody that can specifically bind to the intrabody.
The model HD target polypeptide was fused to c-myc (EQKLISEEDL (SEQ ID NO: 45)) epitope tag (HD-Q104-myc). The intrabodies sequences were fused to a HA tag and a SV40 nuclear localization signal (sFv-HA-NLS), so that bound antigens should be retargeted to the cell nuclei. At 48 hours post-transfection, cells were fixed and permeabilized. The HD-Q104-myc proteins were detectable using anti-myc epitope antibodies (i.e., MAb 9E10 IgG), followed by FITC-labeled goat anti-mouse IgG. The sFv-HA-NLS intrabodies were detected by polyclonal rabbit anti-HA IgG followed by rhodamine-conjugated goat anti-rabbit IgG antibodies.
FIGS. 13A-F show stably transfected COS-7 cells expressing α-Nt-HD-C4 sFv-HA-NLS which were further transfected with plasmids encoding either the model altered huntingtin polypeptide with 104 glutamine repeats (FIGS. 13B, D, F) or the model altered DRPLA polypeptide with 81 glutamine repeats (FIGS. 13A, C, E). Both model altered polypeptides were fused to GFP (GFP-HD-Q104 and GFP-DRPLA-Q81, respectively).

The subject of assay [2] is HD-polyQ-GFP aggregation in COS-7, BHK-21 and HEK 293 cells. As to the kind of experiment: Quantitation of SDS-insoluble fluorescent aggregates after co-transfection of sFv and HD-polyQ-GFP. As to conditions: for number of SDS-insoluble fluorescent aggregates: intrabody to antigen plasmid ratio 5:1, HD-polyQ72 or Q104, 48 hours, COS-7, BHK-21, HEK 293, versus empty vector/control. The class given is cell-based. How it is done: Cells are shown photographed live at 48 hours after transfection by the calcium phosphate method; aggregates appear as intense foci of GFP signals. […] […] Cells were lysed with 2% SDS/2% Triton X-100/50 mM Tris at 48 hours after co-transfection. The number of insoluble, fluorescent aggregates in six or eight random fields was counted. Bars represent means of sextuplicate co-transfections ±SEM.
In particular, it was observed that the formation of pathological HD aggregates in situ display a striking punctate fluorescent morphology with polyglutamine lengths of 40 or more residues (i.e., with Q72 or Q104, but not Q25; FIG. 14). In addition, because these polypeptide aggregates are detergent-insoluble, a method for improved quantitation of residual fluorescent bodies after SDS lysis of transfected cells could be performed (Kazantsev et al., PNAS 96:11404-11409 (1999)). This improved assay allows for polypeptide aggregates to be more accurately enumerated because the plane of focus is eliminated as a variable in the experiment. Accordingly, this assay was utilized for quantitation of polyQ antigen aggregation, alone or in the presence of C4 sFv or control intrabody. COS-7, BHK, and 293 cells were co-transfected with plasmids that express the C4 or a control intrabody and HD-polyQ-eGFP fusions containing Q25, Q72, or Q104.

From patent US20050255113A1, “Methods and compositions for inhibiting polypeptide accumulation associated with neurological disorders” (New York State Department of Health and Abgenix, Inc., priority 1999, published 2005) come the findings set out here.

model huntingtin polypeptide (HD-25Q-GFP, pHD-104Q-GFP, HD-Q104-myc, GFP-HD-Q104), sequence (as listed by the source): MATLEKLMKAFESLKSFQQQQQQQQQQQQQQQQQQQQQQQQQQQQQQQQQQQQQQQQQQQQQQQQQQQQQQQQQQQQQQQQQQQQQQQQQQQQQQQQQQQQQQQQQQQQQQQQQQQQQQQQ
T1 sequence (P54259 with tags, fused parts or gaps DUP487-502): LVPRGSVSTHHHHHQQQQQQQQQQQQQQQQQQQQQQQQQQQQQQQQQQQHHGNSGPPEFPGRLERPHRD
GST-HD-25Q, GST-HD-42Q, sequence (as listed by the source): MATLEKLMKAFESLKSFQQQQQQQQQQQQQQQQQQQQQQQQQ

B1: C4 sFv: human single-chain Fv intrabody from phage display, specific for the 17 N-terminal residues of huntingtin; SEQ ID NO: 6 (protein)
scFv: QVQLQESGGGLVQPGGSLRLSCAASGFTFSSYSMSWVRQAPGKGLEWVAVISYDGSNKYYADSVKGRFTISRDNSKNTLYLQMNSLRAEDTAVYYCARDRYFDLWGRGTLVTVSSGGGGSGGGGSGGGGSQSALTQPASVSGSPGQSITISCTGTSSDIGAYNYVSWYQQYPGKAPKLLIYDVSNRPSGISNRFSGSKSGDTASLTISGLQAEDEADYYCSSFANSGPLFGGGTKVTVL
In the case of B1, the “sFv co-purified with GST-DRPLA-Q35” value in the assay with GST-DRPLA-35Q is “not detected”. Besides, the “sFv co-purified with antigens containing the Nt-HD sequence” value in the assay on GST-HD-25Q, GST-HD-42Q is reported as “present at about the same intensity as the other proteins”. The “retargeting of altered huntingtin polypeptide with 104 glutamines (pHD-104Q-GFP)” value in assay [1] is “can specifically retarget the cellular distribution of the model altered huntingtin polypeptide”. Further, in assay [2] (intrabody to antigen plasmid ratio 3:1, HD-polyQ72-eGFP or HD-polyQ104-eGFP), the extent of aggregation result was “qualitative decrease in the extent of aggregation”. Besides, the entries for the “number of SDS-insoluble fluorescent aggregates” value in assay [2] and in assay [2] (listed as C4) were “pronounced reduction in aggregation” and “significantly reduced the number of aggregates”, respectively.
